In US9127040B2, “Regulation of sodium channels by PLUNC proteins” (The University of North Carolina at Chapel Hill, priority 2011, dated 2015):

Target: T1, ENaC (Homo sapiens, UniProt P37088+P51168+P51170)
T1 construct: measured the transepithelial voltage under thin film conditions in human bronchial epithelial cultures; endogenous in cells; host or cells: primary human bronchial epithelial cultures (normal or CF donors)
T1 sequence (P37088 1-669): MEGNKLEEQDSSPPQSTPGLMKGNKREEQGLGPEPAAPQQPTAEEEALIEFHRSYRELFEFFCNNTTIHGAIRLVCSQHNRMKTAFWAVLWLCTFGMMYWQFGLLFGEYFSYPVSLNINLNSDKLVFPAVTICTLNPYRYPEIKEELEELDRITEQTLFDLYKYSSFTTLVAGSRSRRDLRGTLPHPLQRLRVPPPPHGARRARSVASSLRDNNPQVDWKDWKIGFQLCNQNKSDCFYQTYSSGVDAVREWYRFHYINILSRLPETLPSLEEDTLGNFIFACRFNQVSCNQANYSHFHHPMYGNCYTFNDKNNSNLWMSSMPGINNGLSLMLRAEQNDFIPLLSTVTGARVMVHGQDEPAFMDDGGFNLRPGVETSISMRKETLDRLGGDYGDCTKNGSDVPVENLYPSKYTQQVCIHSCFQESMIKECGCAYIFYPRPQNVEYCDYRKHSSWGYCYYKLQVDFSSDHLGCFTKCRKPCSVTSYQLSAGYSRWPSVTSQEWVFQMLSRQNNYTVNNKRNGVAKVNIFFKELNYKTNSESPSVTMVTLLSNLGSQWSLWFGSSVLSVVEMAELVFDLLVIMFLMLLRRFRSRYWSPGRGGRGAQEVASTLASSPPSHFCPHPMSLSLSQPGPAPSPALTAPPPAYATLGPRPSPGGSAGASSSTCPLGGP
T1 sequence (P51168 1-640): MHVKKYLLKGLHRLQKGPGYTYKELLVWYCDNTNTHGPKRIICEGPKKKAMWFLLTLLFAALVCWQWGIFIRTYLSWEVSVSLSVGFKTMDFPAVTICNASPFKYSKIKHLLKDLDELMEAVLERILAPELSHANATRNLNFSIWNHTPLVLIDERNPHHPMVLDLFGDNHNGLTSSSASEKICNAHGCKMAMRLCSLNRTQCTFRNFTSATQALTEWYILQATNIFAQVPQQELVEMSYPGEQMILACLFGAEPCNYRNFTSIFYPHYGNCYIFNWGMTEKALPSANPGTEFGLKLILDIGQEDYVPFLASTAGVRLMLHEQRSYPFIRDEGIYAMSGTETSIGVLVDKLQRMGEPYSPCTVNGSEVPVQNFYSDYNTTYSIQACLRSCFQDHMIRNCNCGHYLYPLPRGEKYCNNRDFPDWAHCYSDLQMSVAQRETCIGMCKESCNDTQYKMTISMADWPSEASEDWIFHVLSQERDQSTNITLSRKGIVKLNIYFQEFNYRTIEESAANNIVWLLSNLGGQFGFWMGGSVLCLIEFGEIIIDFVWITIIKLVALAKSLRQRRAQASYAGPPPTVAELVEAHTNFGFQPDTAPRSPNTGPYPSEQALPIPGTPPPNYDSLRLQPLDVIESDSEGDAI
T1 sequence (P51170 1-649): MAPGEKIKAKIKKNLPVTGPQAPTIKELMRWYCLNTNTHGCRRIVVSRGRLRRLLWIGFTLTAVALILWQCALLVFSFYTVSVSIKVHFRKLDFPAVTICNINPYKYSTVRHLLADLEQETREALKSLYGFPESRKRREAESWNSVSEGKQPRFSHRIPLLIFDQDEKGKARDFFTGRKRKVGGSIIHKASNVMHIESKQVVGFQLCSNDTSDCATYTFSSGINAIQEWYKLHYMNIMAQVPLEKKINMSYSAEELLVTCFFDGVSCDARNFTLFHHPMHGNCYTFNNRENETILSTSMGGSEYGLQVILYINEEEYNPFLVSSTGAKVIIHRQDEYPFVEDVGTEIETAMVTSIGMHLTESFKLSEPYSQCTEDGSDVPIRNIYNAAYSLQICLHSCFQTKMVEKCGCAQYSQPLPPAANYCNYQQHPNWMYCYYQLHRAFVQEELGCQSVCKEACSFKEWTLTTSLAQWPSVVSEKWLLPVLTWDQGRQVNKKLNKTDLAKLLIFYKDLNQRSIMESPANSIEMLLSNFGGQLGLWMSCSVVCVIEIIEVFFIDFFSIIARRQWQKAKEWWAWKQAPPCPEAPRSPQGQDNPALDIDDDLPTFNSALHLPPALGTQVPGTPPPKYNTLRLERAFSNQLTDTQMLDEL
Assay: Transepithelial voltage (PD), thin film conditions, human bronchial epithelial cultures
Format: cell-based
Description: Tissue procurement and cell culture: Cells were harvested by enzymatic digestion from human bronchial tissue as previously described under a protocol approved by the UNC School of Medicine IRB (Tarran et al., J. Gen. Physiol. 127:591 (2006)). Human excess donor lungs and excised recipient lungs were obtained at the time of lung transplantation from portions of main stem or […] bronchi and cells were harvested by enzymatic digestion. All preparations were maintained at an air-liquid interface in a modified bronchial epithelial medium and used 2-5 weeks after seeding on 12 mm T-Clear inserts (Corning Costar) coated with human placental type VI collagen (Sigma). Phosphate buffered saline (PBS) was used for washing human bronchial epithelial culture mucosal surfaces. HBECs were maintained at an air-liquid interface in a modified bronchial epithelial growth medium (BEGM) with 5% CO2 at 37° C. and used 2-5 weeks after seeding on 12-mm T-clear inserts (Corning-Costar, Corning, N.Y., USA) (Randell, Methods Mol. Biol. 742:285 (2011)).
A single-barreled potential difference-sensing electrode was placed in the airway surface liquid by micromanipulator and used in conjunction with a macroelectrode in the serosal solution to measure transepithelial voltage using a voltmeter (World Precision Instruments). […] Transepithelial resistance was routinely measured using the EVOM system (WPI) as previously described (Tarran et al., J. Gen. Physiol. 127:591 (2006)).

B1: SPLUNC1: human SPLUNC1 (SEQ ID NO:1), 256 amino acid secreted PLUNC family protein; rSPLUNC1 is the purified V5/6His-tagged recombinant form (protein, listed as Homo sapiens)
chain: MFQTGGLIVFYGLLAQTMAQFGGLPVPLDQTLPLNVNPALPLSPTGLAGSLTNALSNGLLSGGLLGILENLPLLDILKPGGGTSGGLLGGLLGKVTSVIPGLNNIIDIKVTDPQLLELGLVQSPDGHRLYVTIPLGIKLQVNTPLVGASLLRLAVKLDITAEILAVRDKQERIHLVLGDCTHSPGSLQISLLDGLGPLPIQGLLDSLTGILNKVLPELVQGNVCPLVNEVLRGLDITLVHDIVNMLIHGLQFVIKV
modifications: V5/6His tag in recombinant form
notes: rSPLUNC1 is the purified V5/6His-tagged recombinant form
- transepithelial voltage (50 ng/ml rSPLUNC1 in 20 μl Ringer, PBS-washed cultures): significantly reduced the transepithelial voltage
- regulation of transepithelial voltage in cultures lacking SPLUNC1 (SPLUNC1 shRNA knockdown, 50 ng/ml rSPLUNC1): restored
- transepithelial voltage, cultures not pre-washed (airway surface liquid left to accumulate for 24 h): without further effect
- onset of inhibition (human bronchial epithelial cultures, FIG. 2C, 2D): 30 to 60 min
- transepithelial voltage, addition to amiloride-treated cultures (rSPLUNC1 added to the same amiloride-treated cultures, n=12): without further effect
- rate of inhibition of the transepithelial voltage (rSPLUNC1 vs aprotinin addition, effects not additive): identical rates
